Assays:
Fer (mouse) = assay: phosphorylation enrichment, bacterial display (enrichment ratio); higher = better substrate or ligand; peptides without Tyr show the background
MERTK = MERTK (UniProt Q12866); assay: as above
Hck = Hck (UniProt P08631); assay: as above
c-Src = assay: as above
FGFR3 = FGFR3 (UniProt P22607); assay: as above
Jak2 = Jak2 (UniProt O60674); assay: as above
Fes = Fes (UniProt P07332); assay: as above
EPHB2 = EPHB2 (UniProt P29323); assay: as above
c-Abl (mouse) = assay: as above
FGFR1 = FGFR1 (UniProt P11362); assay: as above
EPHB1 = EPHB1 (UniProt P54762); assay: as above
Fyn = Fyn (UniProt P06241); assay: as above
AncSZ = assay: as above
c-Src SH2 = assay: SH2 binding enrichment of the phosphorylated peptide, bacterial display (enrichment ratio); higher = better substrate or ligand; peptides without Tyr show the background
Grb2 SH2 = Grb2 SH2 (UniProt P62993); assay: as above
SHP2-C SH2 = assay: as above
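Wherever SH2 binding enrichment of the phosphorylated peptide, bacterial display is given: peptide library displayed on the E. coli surface as eCPX fusions, selected cells deep-sequenced, score is each peptide's frequency after selection divided by its frequency in the input.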
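Wherever phosphorylation enrichment, bacterial display is given: 11-residue human phosphosite peptides and single-mutation variants displayed on the E. coli surface, counted by deep sequencing, each peptide's frequency after selection divided by its frequency in the unselected input library; frequency after pTyr selection over input frequency; kinase dosed for 20-30% of maximal phosphorylation in three min.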

Sequence of FGFR3 (P22607 whole entry, looked up): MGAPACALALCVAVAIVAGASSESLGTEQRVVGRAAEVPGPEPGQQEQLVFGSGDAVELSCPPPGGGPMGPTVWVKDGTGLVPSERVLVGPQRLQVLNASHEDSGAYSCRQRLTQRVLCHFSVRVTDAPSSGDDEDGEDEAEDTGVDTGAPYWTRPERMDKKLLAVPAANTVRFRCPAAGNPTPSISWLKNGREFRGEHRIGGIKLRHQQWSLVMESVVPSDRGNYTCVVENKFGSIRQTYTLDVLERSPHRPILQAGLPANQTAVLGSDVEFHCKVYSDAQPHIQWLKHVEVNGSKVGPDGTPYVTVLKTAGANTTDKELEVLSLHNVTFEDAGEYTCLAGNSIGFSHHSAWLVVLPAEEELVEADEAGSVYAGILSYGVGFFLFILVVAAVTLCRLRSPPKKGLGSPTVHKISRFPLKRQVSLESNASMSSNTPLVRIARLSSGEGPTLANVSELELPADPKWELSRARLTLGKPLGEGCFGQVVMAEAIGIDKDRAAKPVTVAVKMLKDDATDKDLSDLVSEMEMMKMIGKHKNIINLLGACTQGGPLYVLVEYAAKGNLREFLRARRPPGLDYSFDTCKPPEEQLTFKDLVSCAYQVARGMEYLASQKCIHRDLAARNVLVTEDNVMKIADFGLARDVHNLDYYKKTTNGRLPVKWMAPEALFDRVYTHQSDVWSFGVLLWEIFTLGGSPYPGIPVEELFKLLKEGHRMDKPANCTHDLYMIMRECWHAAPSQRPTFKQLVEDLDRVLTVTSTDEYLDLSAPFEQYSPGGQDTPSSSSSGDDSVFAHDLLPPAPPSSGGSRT
Sequence of Jak2 (O60674 whole entry, looked up): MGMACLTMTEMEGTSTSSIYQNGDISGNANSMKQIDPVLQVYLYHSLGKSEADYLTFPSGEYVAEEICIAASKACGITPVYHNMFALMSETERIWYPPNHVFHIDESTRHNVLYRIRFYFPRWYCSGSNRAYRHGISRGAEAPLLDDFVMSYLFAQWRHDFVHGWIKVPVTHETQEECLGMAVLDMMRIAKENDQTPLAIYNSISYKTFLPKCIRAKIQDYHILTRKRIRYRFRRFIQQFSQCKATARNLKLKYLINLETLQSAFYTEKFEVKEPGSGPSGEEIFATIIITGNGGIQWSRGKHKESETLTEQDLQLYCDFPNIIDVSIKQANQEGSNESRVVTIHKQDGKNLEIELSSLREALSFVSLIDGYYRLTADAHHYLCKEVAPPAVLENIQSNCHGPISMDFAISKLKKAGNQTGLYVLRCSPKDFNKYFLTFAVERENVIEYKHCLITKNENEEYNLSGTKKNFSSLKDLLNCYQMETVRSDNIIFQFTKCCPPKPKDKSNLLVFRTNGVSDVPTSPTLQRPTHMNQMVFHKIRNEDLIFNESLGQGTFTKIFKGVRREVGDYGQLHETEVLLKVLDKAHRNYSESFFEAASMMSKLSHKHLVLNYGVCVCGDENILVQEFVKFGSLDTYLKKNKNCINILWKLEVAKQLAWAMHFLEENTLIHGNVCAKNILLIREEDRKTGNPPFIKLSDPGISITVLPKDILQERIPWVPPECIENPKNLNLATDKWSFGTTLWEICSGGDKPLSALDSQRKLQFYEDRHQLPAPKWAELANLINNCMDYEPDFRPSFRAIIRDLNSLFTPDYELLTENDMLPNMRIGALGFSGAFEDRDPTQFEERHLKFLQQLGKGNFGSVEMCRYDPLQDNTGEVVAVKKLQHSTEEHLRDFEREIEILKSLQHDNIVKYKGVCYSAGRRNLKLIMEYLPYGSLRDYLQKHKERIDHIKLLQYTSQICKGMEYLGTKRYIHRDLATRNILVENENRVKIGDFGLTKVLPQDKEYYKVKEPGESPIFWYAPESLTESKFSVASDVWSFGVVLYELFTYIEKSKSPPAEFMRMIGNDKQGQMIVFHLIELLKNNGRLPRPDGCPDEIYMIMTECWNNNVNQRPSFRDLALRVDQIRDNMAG
Sequence of Fyn (P06241 whole entry, looked up): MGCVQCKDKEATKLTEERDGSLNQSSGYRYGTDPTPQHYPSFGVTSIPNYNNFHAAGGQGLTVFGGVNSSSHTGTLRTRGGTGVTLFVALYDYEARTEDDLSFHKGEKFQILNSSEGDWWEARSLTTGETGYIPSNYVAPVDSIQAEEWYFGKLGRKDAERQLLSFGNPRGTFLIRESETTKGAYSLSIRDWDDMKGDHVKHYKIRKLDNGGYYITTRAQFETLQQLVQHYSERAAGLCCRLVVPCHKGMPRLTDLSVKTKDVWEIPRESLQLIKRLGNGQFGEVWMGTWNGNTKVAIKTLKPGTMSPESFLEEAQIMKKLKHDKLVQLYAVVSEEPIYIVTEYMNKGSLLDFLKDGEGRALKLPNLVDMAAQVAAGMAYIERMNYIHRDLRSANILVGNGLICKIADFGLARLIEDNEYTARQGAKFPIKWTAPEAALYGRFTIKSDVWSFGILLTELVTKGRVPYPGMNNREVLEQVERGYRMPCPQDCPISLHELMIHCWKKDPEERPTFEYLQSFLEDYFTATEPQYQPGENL
Sequence of EPHB1 (P54762 whole entry, looked up): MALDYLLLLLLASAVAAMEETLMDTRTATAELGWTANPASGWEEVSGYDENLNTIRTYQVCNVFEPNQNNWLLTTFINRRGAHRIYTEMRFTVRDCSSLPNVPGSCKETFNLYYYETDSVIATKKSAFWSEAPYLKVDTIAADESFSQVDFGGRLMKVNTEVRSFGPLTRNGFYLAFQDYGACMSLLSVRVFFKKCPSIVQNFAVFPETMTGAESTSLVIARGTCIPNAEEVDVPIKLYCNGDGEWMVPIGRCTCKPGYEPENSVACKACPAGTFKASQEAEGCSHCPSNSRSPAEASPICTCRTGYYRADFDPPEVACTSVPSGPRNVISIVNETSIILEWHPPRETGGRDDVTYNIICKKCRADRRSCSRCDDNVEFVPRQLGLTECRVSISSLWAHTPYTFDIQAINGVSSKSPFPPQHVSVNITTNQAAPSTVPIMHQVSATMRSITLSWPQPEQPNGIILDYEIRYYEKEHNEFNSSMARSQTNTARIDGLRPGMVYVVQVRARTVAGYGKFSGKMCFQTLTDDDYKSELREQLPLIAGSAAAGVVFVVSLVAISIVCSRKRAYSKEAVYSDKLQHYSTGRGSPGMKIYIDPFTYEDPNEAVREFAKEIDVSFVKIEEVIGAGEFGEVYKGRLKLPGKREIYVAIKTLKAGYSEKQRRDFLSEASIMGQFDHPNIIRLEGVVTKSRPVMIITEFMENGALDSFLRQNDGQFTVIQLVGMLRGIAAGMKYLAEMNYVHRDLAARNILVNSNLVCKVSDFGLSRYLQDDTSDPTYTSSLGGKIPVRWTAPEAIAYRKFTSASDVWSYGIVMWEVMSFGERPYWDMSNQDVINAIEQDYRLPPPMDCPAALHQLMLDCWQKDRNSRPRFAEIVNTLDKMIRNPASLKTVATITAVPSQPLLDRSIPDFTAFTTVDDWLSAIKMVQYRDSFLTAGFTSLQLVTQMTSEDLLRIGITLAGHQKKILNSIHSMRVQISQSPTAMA
Sequence of FGFR1 (P11362 whole entry, looked up): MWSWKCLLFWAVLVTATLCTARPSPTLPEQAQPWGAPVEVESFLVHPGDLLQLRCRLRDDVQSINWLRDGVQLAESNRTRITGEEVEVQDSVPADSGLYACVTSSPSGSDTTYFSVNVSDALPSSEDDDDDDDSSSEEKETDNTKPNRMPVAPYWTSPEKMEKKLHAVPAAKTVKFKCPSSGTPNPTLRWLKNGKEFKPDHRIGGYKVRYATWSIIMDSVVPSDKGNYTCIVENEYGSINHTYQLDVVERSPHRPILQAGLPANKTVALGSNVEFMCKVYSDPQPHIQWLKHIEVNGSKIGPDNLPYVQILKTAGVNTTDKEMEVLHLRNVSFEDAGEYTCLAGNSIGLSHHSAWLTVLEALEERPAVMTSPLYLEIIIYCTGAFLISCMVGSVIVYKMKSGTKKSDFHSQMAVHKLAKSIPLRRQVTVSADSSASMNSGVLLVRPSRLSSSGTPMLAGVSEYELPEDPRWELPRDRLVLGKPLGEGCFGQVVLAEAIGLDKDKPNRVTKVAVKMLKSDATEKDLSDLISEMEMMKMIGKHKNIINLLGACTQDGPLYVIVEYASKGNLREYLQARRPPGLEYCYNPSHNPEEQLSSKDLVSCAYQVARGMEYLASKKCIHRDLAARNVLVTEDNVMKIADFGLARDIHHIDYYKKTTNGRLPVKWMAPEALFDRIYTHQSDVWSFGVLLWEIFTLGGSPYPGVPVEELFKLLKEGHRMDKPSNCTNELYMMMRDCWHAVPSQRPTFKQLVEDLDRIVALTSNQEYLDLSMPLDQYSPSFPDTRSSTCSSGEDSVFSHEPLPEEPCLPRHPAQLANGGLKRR
Sequence of Fes (P07332 whole entry, looked up): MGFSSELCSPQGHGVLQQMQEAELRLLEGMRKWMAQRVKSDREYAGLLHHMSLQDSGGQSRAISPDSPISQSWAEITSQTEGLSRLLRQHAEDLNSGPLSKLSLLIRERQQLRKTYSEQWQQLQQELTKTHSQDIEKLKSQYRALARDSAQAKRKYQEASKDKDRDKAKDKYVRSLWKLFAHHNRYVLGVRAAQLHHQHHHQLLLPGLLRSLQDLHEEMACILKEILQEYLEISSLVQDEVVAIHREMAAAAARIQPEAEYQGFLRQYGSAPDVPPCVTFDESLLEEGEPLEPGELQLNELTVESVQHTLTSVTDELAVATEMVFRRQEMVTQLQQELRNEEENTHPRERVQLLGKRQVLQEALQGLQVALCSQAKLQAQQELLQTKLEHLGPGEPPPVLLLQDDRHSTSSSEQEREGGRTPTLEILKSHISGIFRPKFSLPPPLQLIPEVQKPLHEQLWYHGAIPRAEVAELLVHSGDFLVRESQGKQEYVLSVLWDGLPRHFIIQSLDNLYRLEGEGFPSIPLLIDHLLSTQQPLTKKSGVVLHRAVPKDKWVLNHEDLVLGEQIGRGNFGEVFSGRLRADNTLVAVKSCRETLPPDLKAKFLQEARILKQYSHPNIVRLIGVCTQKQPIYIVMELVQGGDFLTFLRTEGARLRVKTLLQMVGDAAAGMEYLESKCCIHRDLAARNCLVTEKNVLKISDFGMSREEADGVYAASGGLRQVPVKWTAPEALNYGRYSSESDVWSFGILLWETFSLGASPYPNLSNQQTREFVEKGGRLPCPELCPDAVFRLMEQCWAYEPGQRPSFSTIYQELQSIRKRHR

Row | Sequence | SH2 binding enrichment (c-Src SH2) | SH2 binding enrichment (Grb2 SH2) | SH2 binding enrichment (SHP2-C SH2) | phosphorylation enrichment (Fer (mouse)) | phosphorylation enrichment (MERTK) | phosphorylation enrichment (Hck) | phosphorylation enrichment (c-Src) | phosphorylation enrichment (FGFR3) | phosphorylation enrichment (Jak2) | phosphorylation enrichment (Fes) | phosphorylation enrichment (EPHB2) | phosphorylation enrichment (c-Abl (mouse)) | phosphorylation enrichment (FGFR1) | phosphorylation enrichment (EPHB1) | phosphorylation enrichment (Fyn) | phosphorylation enrichment (AncSZ)
1 | IFGVSYGEYRY [CFTR_Y512_D513G] | 0.933 | 1.05 | 1.1 | 0.736 | 0.537 | 4.11 | 5.62 | 0.819 | 0.858 | 1.33 | 0.691 | 0.632 | 0.603 | 0.852 | 7.22 | 0.9
2 | IVGLLYRLLTE [SETX_Y1978] | 1.89 | 2.03 | 1.37 | 0.561 | 0.71 | 0.596 | 0.539 | 0.937 | 1.13 | 1.35 | 0.672 | 0.733 | 0.699 | 0.665 | 0.436 | 1.29
3 | PVQAAYRKVVA [HBB_Y131_Q132R] | 0.493 | 0.859 | 0.597 | 0.339 | 0.348 | 0.543 | 0.421 | 0.373 | 0.336 | 0.505 | 0.237 | 0.48 | 0.367 | 0.199 | 0.407 | 0.502
4 | SLNAVYPKAGS [OAS3_Y376_R378K] | 0.456 | 0.841 | 0.76 | 0.412 | 0.417 | 0.422 | 0.473 | 0.443 | 0.474 | 0.515 | 0.383 | 0.467 | 0.427 | 0.296 | 0.395 | 0.562
5 | NLTLKYPIEHG [ACTA1_Y71_I66N] | 0.507 | 0.804 | 0.718 | 0.375 | 0.407 | 0.446 | 0.417 | 0.549 | 0.669 | 0.93 | 0.541 | 0.717 | 0.598 | 0.493 | 0.47 | 0.767
6 | NDFGNYSNQSS [HNRNPA1_Y318_N319S] | 0.421 | 0.795 | 0.625 | 0.43 | 0.501 | 0.451 | 0.463 | 0.49 | 0.546 | 0.619 | 1.92 | 0.458 | 0.461 | 6.89 | 0.416 | 1.02
7 | YRDALYKSMVD [PHEX_Y250_F252S] | 0.457 | 0.804 | 0.666 | 0.421 | 0.4 | 0.525 | 0.449 | 0.608 | 0.717 | 0.856 | 0.805 | 0.592 | 0.458 | 0.564 | 0.495 | 0.757
8 | WNGDKYAATTT [TRIM39_Y439] | 0.481 | 0.994 | 0.61 | 0.446 | 0.381 | 0.52 | 0.421 | 0.679 | 0.729 | 0.731 | 0.592 | 0.513 | 0.654 | 0.462 | 0.48 | 0.717
9 | VTVLDYDKIGK [SYT1_Y365] | 2.88 | 0.774 | 0.777 | 0.404 | 0.48 | 0.648 | 0.391 | 0.515 | 0.501 | 0.828 | 0.541 | 0.482 | 0.505 | 0.45 | 0.343 | 0.621
10 | PDGREYIFVDP [PDGFRA_Y572_H570R_YF] | 0.543 | 0.789 | 0.618 | 0.615 | 0.49 | 0.647 | 0.431 | 1.2 | 1.02 | 1.08 | 0.532 | 0.488 | 1.86 | 0.62 | 0.649 | 2.12
11 | SVTGTYSPALN [TP53_Y126_C124G] | 0.415 | 0.852 | 0.747 | 0.434 | 0.444 | 0.621 | 0.549 | 0.593 | 0.835 | 0.769 | 0.424 | 0.717 | 0.394 | 0.419 | 0.584 | 0.661
12 | DENWFYTQAAS [RPS19_Y54_R56Q] | 0.881 | 0.906 | 0.726 | 0.483 | 0.395 | 0.392 | 0.472 | 0.682 | 0.876 | 1.06 | 0.877 | 0.62 | 0.455 | 0.49 | 0.388 | 1.15
13 | SFLSYYTSHVQ [NEFL_Y443_P440L] | 2.51 | 1.17 | 3.81 | 0.583 | 2.19 | 0.794 | 0.936 | 1.01 | 2.1 | 1.1 | 1.01 | 0.828 | 1.04 | 1.26 | 0.585 | 1.01
14 | YAANYYKLLGN [ROR2_Y646_D644N] | 0.501 | 0.872 | 0.685 | 0.506 | 0.832 | 0.406 | 0.462 | 1.35 | 0.917 | 0.609 | 0.546 | 0.579 | 1.76 | 0.566 | 0.46 | 0.566
15 | VEDPEYAVTQL [STOML2_Y124] | 0.483 | 1.11 | 0.835 | 0.709 | 0.409 | 0.463 | 0.549 | 0.516 | 0.893 | 0.997 | 0.531 | 0.597 | 0.477 | 0.466 | 0.398 | 1.24
16 | QTLEAYIRCNK [SPAST_Y604_W607C] | 0.474 | 0.76 | 0.626 | 0.452 | 0.624 | 0.951 | 0.372 | 1.1 | 1.44 | 1.36 | 0.738 | 0.887 | 0.559 | 0.906 | 0.438 | 1.12

The next lines start with results.

Row | SH2 binding enrichment (c-Src SH2) | SH2 binding enrichment (Grb2 SH2) | SH2 binding enrichment (SHP2-C SH2) | Sequence | phosphorylation enrichment (Fer (mouse)) | phosphorylation enrichment (MERTK) | phosphorylation enrichment (Hck) | phosphorylation enrichment (c-Src) | phosphorylation enrichment (FGFR3) | phosphorylation enrichment (Jak2) | phosphorylation enrichment (Fes) | phosphorylation enrichment (EPHB2) | phosphorylation enrichment (c-Abl (mouse)) | phosphorylation enrichment (FGFR1) | phosphorylation enrichment (EPHB1) | phosphorylation enrichment (Fyn) | phosphorylation enrichment (AncSZ)
17 | 1.21 | 1.12 | 2.42 | KLLRLYAVVTR [LYN_Y306_V303L] | 0.51 | 0.581 | 0.468 | 0.544 | 0.644 | 1.05 | 1.04 | 0.594 | 0.918 | 0.409 | 0.982 | 0.451 | 0.997
18 | 0.646 | 0.944 | 1.49 | RGSQQYRALPV [TUBB8_Y281_T285P] | 0.434 | 0.525 | 0.388 | 0.588 | 0.546 | 0.789 | 0.686 | 0.563 | 0.694 | 0.803 | 0.533 | 0.655 | 0.618
19 | 0.539 | 0.841 | 1.12 | RPYVYYYSYLL [PTEN_Y177_R173P] | 0.931 | 5.81 | 2.09 | 2.3 | 4.57 | 2.84 | 1.6 | 1.39 | 1.4 | 7.24 | 2.64 | 1.42 | 1.51
20 | 0.642 | 0.881 | 1.2 | TDIVAYSGWVQ [SPTBN2_Y477_R480W] | 1.38 | 0.621 | 1.53 | 1.4 | 0.779 | 0.82 | 1.02 | 0.532 | 1.75 | 0.573 | 0.684 | 0.824 | 1.03
21 | 0.539 | 0.887 | 0.859 | NFATLYLKIYH [PDE6B_Y219] | 0.492 | 0.392 | 0.42 | 0.403 | 0.709 | 1.27 | 1.28 | 0.574 | 0.827 | 0.464 | 0.564 | 0.42 | 0.989
22 | 0.434 | 0.768 | 0.592 | ACEVLYNIAFM [NCF2_Y125] | 5.68 | 2.03 | 2.45 | 2.17 | 1.49 | 1.11 | 1.53 | 0.859 | 2.57 | 0.976 | 0.983 | 1.97 | 2.01
23 | 5.74 | 1.06 | 2.51 | RPSELYYSKIS [SMG1_Y2253_G2258S] | 2.25 | 14.6 | 11.1 | 2.96 | 3.5 | 1.05 | 1.02 | 1.31 | 0.926 | 5.05 | 2.17 | 1.4 | 1.79
24 | 2.42 | 0.931 | 0.848 | NTTIHYNYMCN [TP53_Y234_C229N] | 0.566 | 0.574 | 0.579 | 0.496 | 0.803 | 0.817 | 1.06 | 0.692 | 0.707 | 0.767 | 0.747 | 0.55 | 1.08
25 | 3.79 | 0.962 | 1.12 | CTTNHYNFMCN [TP53_Y234_I232N_YF] | 0.486 | 0.437 | 0.424 | 0.497 | 0.556 | 0.511 | 0.67 | 0.544 | 0.489 | 0.626 | 0.436 | 0.463 | 0.811
26 | 0.422 | 0.753 | 0.581 | YRKNIYNVKST [SYNE2_Y575] | 0.425 | 0.354 | 0.324 | 0.474 | 0.48 | 0.37 | 0.47 | 0.423 | 0.405 | 0.384 | 0.337 | 0.458 | 0.488
27 | 0.488 | 0.722 | 0.751 | KLNNEYLELNF [MME_Y497_YF] | 0.552 | 0.503 | 1.06 | 0.843 | 3.38 | 1.1 | 1.04 | 0.715 | 0.778 | 4.77 | 0.844 | 0.757 | 1.16
28 | 1 | 0.772 | 0.714 | ETKKQYDSFTY [TMED3_Y85] | 0.542 | 0.524 | 0.54 | 0.604 | 0.581 | 0.656 | 0.828 | 0.493 | 0.639 | 0.5 | 0.397 | 0.531 | 0.735
29 | 0.604 | 0.801 | 0.545 | CEHFSYFGMKA [SLC15A2_Y60_R57H_YF] | 0.452 | 0.469 | 0.444 | 0.673 | 0.902 | 3.82 | 0.845 | 0.516 | 0.605 | 1.61 | 0.555 | 0.379 | 0.879
30 | 2.99 | 0.826 | 0.668 | APTSGYQEFVH [IL4R_Y575] | 0.401 | 0.426 | 0.503 | 0.419 | 0.51 | 0.611 | 0.764 | 0.535 | 0.524 | 0.539 | 0.36 | 0.545 | 0.741
31 | 0.595 | 0.761 | 22.6 | LRNIDYFRLDG [ATRX_Y2083_YF] | 1.7 | 3.41 | 1.63 | 3.74 | 10.8 | 26.8 | 4.09 | 3.05 | 5.39 | 21.5 | 2.95 | 2.77 | 3.71
32 | 0.439 | 0.663 | 0.568 | KPIETYFSKNF [PLP1_Y50_L46P_YF] | 0.379 | 0.465 | 0.436 | 0.44 | 0.555 | 0.636 | 0.775 | 0.497 | 0.53 | 0.417 | 0.506 | 0.544 | 0.656
33 | 1.93 | 0.862 | 1.68 | IHETTYNSIMK [ACTA1_Y281] | 0.414 | 0.3 | 1.38 | 1.04 | 0.436 | 0.477 | 0.711 | 0.338 | 0.572 | 0.384 | 0.332 | 0.746 | 0.475
